Biological target: Piromyces ScaA fragment (Piromyces)
Assay: SPR equilibrium analysis

Substance	Kd
P. finnis single dockerin domain	700 nM
W28F dockerin mutant	2000 nM
